Data as given in publication PMC314469, “Protein Interaction Networks by Proteome Peptide Scanning” (PLoS Biology, 2004).

T1: Myo5 SH3 (MYO5_YEAST), Q04439
T1 chain: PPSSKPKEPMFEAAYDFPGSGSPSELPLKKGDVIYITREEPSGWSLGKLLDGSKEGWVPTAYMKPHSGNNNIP

T2: Boi1 SH3 (BOI1_YEAST), P38041
T2 chain: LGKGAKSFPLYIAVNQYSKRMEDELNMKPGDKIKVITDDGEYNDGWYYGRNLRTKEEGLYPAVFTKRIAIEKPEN

T3: Boi2 SH3 (BOI2_YEAST), P39969
T3 chain: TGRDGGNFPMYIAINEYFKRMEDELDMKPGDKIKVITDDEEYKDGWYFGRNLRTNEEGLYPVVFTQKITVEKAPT

T4: Rvs167 SH3 (RV167_YEAST), P39743
T4 chain: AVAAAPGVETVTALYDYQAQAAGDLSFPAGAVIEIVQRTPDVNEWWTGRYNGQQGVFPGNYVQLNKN

T5: Yfr024 SH3 (LSB3_YEAST), P43603
T5 chain: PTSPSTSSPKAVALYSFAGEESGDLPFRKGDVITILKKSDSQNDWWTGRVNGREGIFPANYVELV

T6: Yhr016c SH3 (YSC84_YEAST), P32793
T6 chain: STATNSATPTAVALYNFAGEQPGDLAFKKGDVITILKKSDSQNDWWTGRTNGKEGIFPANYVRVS

T7: Abp1 SH3 (ABP1_YEAST), P15891
T7 chain: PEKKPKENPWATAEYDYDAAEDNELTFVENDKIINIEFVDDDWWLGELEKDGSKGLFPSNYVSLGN


Assays:
Assay in all cases: SPOT array
[1] = molecular target: T1, Myo5 SH3 (MYO5_YEAST), Q04439
[2] = molecular target: T2, Boi1 SH3 (BOI1_YEAST), P38041
[3] = molecular target: T3, Boi2 SH3 (BOI2_YEAST), P39969
[4] = molecular target: T4, Rvs167 SH3 (RV167_YEAST), P39743
[5] = molecular target: T5, Yfr024 SH3 (LSB3_YEAST), P43603
[6] = molecular target: T6, Yhr016c SH3 (YSC84_YEAST), P32793
[7] = molecular target: T7, Abp1 SH3 (ABP1_YEAST), P15891

Row | Binder | normalised SPOT signal, Boehringer light units (BLU); mean over the file's lines of this peptide [1] | also measured
1 | LLAEHNGPKLPHIP [YKR021W 416-429] | 198 | –
2 | NEIELLRPRSPVQK [YCL055W 320-333] | 126 | –
3 | MFNLLQKPEQPHQN [YLR291C 121-134] | 204 | –
4 | NASAMPAPYMPYYY [YIR010W 139-152] | 226 | –
5 | NASLLRDPSAPYAH [YER064C 198-211] | 134 | –
6 | NFPSLIDPHVPTYG [YDL223C 906-919] | 97.4 | –
7 | LLLPLLLPPLPSVK [YKL147C 80-93] | 6470 | –
8 | MANILYYPQKPLGT [YOR151C 792-805] | 152 | –
9 | NAIAMALPNEPYPA [YLR342W 137-150] | 96.8 | –
10 | LWKPLVYPTSPSEH [YFR019W 1841-1854] | 185 | –
11 | MASFLPVPEKPNLI [YNL206C 125-138] | 161 | –
12 | NALKLIHPFMPFIS [YGR094W 895-908] | 170 | –
13 | NEGDLYPPEQPGVD [YJL115W 157-170] | 80.1 | –
14 | NEKLHETPHLPSPV [YNL204C 272-285] | 109 | –
15 | MASGLLPPIQPGFD [YJR106W 230-243] | 223 | –
16 | LPQQHLSPLIPIAI [YGL035C 132-145] | 45.3 | –
17 | RERPLEPPRKPMAS [YDR448W 142-155] | 967 | normalised SPOT signal, Boehringer light units (BLU); mean over the file's lines of this peptide [2]: 256; normalised SPOT signal, Boehringer light units (BLU); mean over the file's lines of this peptide [3]: 41.1; normalised SPOT signal, Boehringer light units (BLU); mean over the file's lines of this peptide [4]: 599; normalised SPOT signal, Boehringer light units (BLU); mean over the file's lines of this peptide [5]: 13500; normalised SPOT signal, Boehringer light units (BLU); mean over the file's lines of this peptide [6]: 1830
18 | LPTGYYEPMKPSSL [YLL016W 406-419] | 165 | –
19 | LWILYMSPDVPSAS [YPL058C 1310-1323] | 253 | –
20 | NALGLDPPPSPEDP [YLR203C 42-55] | 241 | –
21 | MEEPFIWPEEPRPD [YDR405W 164-177] | 79.7 | –
22 | LLQSLRLPTTPTER [YCL040W 391-404] | 125 | –
23 | MFTYFQEPPFPDLL [YPL063W 167-180] | 239 | –
24 | NFLKHYLPSSPGDI [YDL033C 241-254] | 172 | –

Row | Binder | normalised SPOT signal, Boehringer light units (BLU); mean over the file's lines of this peptide [1] | also measured
25 | MLFSWPYPEAPIEG [YPL087W 1-14] | 126 | –
26 | NAIEMALPNDPYPA [YGR032W 156-169] | 87.2 | –
27 | LLAKLPLPRDPRVA [YPR183W 188-201] | 344 | –
28 | LLISHLFPTNPEFS [YER155C 650-663] | 414 | –
29 | NEHGMNAPSVPEFI [YOR290C 25-38] | 344 | –
30 | LLKGYIPPYKPIVK [YMR104C 608-621] | 169 | –
31 | MFELLSHPKVPVGM [YHR197W 602-615] | 268 | –
32 | NEFLHFDPHIPQPA [YNL223W 328-341] | 156 | –
33 | LPTALLSPLRPSLS [YCL051W 199-212] | 115 | –
34 | WETWLYKPGMPPRP [YNL045W 490-503] | 255 | normalised SPOT signal, Boehringer light units (BLU); mean over the file's lines of this peptide [7]: 310
35 | NEDTFLPPPPPPPS [YHR165C 44-57] | 20400 | –
36 | MAKSFADPRVPQPM [YPR112C 91-104] | 172 | –
37 | LPAVFSAPIRPDIV [YBR031W 22-35] | 202 | –
38 | NETKLKFPTLPEVP [YHR117W 470-483] | 255 | –
39 | TELNLSSPNVPGKP [YKL216W 127-140] | 228 | normalised SPOT signal, Boehringer light units (BLU); mean over the file's lines of this peptide [7]: 166
40 | LPEELMRPKVPELL [YPL012W 957-970] | 145 | –
41 | LLYLMTYPQQPMVK [YOR207C 724-737] | 162 | –
42 | LVGMRSFPLYPSGL [YDL068W 45-58] | 386 | normalised SPOT signal, Boehringer light units (BLU); mean over the file's lines of this peptide [2]: 512; normalised SPOT signal, Boehringer light units (BLU); mean over the file's lines of this peptide [3]: 325; normalised SPOT signal, Boehringer light units (BLU); mean over the file's lines of this peptide [4]: 387; normalised SPOT signal, Boehringer light units (BLU); mean over the file's lines of this peptide [5]: 1940; normalised SPOT signal, Boehringer light units (BLU); mean over the file's lines of this peptide [6]: 330
43 | MLNEHGVPVVPSRE [YER014W 436-449] | 199 | –
44 | MLKALFTPLIPVSF [YML068W 248-261] | 257 | –
45 | LPAPPPPPRRGPA [YOR181W 341-353] | 43400 | –
46 | NEAPMLSPQRPYST [YLR006C 162-175] | 111 | –
47 | LPFMYLLPRFPSHI [YGR065C 182-195] | 455 | –
